B1: TKDP-1/5 (dsDNA)
DNA 1: CAGTGTGTCCATCCTCAGCATCCTCAGGAGCCCTC
DNA 2: GAGGGCTCCTGAGGATGCTGAGGATGGACACACTG
B2: TKDP-1/1 (dsDNA)
DNA 1: ACAGATGCAGGAGGCATGGG
DNA 2: CCCATGCCTCCTGCATCTGT
B3: TKDP-1/4 (dsDNA)
DNA 1: CTGATCTCACGACTCAGCCAGAATATTAAAAGCTC
DNA 2: GAGCTTTTAATATTCTGGCTGAGTCGTGAGATCAG
B4: TKDP-1/3 (dsDNA)
DNA 1: TCCTCCCCTTGCCCACTCCCCTCCTTATCACCTGATCTCACGACTCA
DNA 2: TGAGTCGTGAGATCAGGTGATAAGGAGGGGAGTGGGCAAGGGGAGGA
B5: TKDP-1/2 (dsDNA)
DNA 1: CATGGGTAGGTAGGGAGGTTATGCAATAAACAGGACTGACTCAACTCCTCC
DNA 2: GGAGGAGTTGAGTCAGTCCTGTTTATTGCATAACCTCCCTACCTACCCATG
B6: TKDP-1/6 (dsDNA)
DNA 1: AGGAGCCCTCCTGCAAGGCC
DNA 2: GGCCTTGCAGGAGGGCTCCT
B7: Ets-2 consensus (dsDNA)
DNA 1: CTAGGACCGGAAGTGGGAGT
DNA 2: ACTCCCACTTCCGGTCCTAG

T1 sequence (A0ACI6RFA5 entry or part of it): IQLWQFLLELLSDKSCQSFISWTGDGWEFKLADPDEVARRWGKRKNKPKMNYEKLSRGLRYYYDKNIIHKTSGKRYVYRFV

One data set concerns the target T1, ovEts-2-GST fusion (Ovis aries, UniProt A0ACI6RFA5 364-444). Nature of the data set: competition EMSA; 250-fold excess vs N1; EMSA: 35 fmol probe, 2 ug Ets-2-GST or 10 ug JEG-3 extract, buffer per cited ref 23; pull-down: extract in 25 mM Tris-HCl pH 7.5, 150 mM NaCl, 0.5% Triton X-100, 0.5 mM DTT, 4 C overnight. Particulars: protein: recombinant; tags: GST; blunt; only sense strand given. (In EMSA bound probe runs differently from free probe, usually more slowly.)
B1: the binding result is “no binding”.
The same measure, in the same setting: the value for B2 was “no binding”; that for B3 was “no binding”; that for B4 was “no binding”.
On the same count and under the same terms, then B5, with “no binding”; and B6, with “no binding”.

The target of a further data set is T1, ovEts-2-GST fusion. Nature of the data set: EMSA; anti-Ets-2 supershift; EMSA: 35 fmol probe, 2 ug Ets-2-GST or 10 ug JEG-3 extract, buffer per cited ref 23; pull-down: extract in 25 mM Tris-HCl pH 7.5, 150 mM NaCl, 0.5% Triton X-100, 0.5 mM DTT, 4 C overnight. Conditions: protein: recombinant; tags: GST; label: 32P; blunt; only sense strand given.
Consider B7, for which the binding result is given as “binds”.

The values are drawn from PMC1817651, “Ets-2 and C/EBP-beta are important mediators of ovine trophoblast Kunitz domain protein-1 gene expression in trophoblast”.
